In article PMC11890623, “Pseudomonas aeruginosa acyl-CoA dehydrogenases and structure-guided inversion of their substrate specificity” (Nature Communications, 2025):
Blank lines part the entries; values can stand above or below the substance they belong to.

Key:
[1] = molecular target: FadE1 (PA0506), fatty acyl-CoA dehydrogenase of Pseudomonas aeruginosa (Pseudomonas aeruginosa PAO1); experiment: AUC; sedimentation at 50000 rpm, 20 °C; protein at 1 mg/mL in 20 mM Tris-HCl, 100 mM NaCl, 10 mM imidazole (pH 7.5); absorbance and interference scans; analysis with SEDFIT; His6 tags removed
[2] = system: T1, CCCCCCCC(=O)SCCNC(=O)CCNC(=O)[C@H](O)C(C)(C)COP(=O)(O)OP(=O)(O)OC[C@H]1O[C@@H](n2cnc3c(N)ncnc32)[C@H](O)[C@@H]1OP(=O)(O)O; experiment: purified protein; format: biochemical, Pseudomonas aeruginosa; conditions: FAD sandwiched between catalytic Glu441 and the FAD
T1 construct: full-length ORF, His6 tag removed by TEV

[3] = system: T2, CCCCCCCCCCCCCCCC(=O)SCCNC(=O)CCNC(=O)[C@H](O)C(C)(C)COP(=O)(O)OP(=O)(O)OC[C@H]1O[C@@H](n2cnc3c(N)ncnc32)[C@H](O)[C@@H]1OP(=O)(O)O; experiment: Michaelis-Menten kinetics of purified enzyme (KM); format: biochemical, Pseudomonas aeruginosa; conditions: FAD
T2 construct: full-length ORF, His6 tag removed by TEV

[4] = molecular target: FadE2 (PA0508), fatty acyl-CoA dehydrogenase of Pseudomonas aeruginosa (Pseudomonas aeruginosa PAO1); experiment: AUC; sedimentation at 50000 rpm, 20 °C; protein at 1 mg/mL in 20 mM Tris-HCl, 100 mM NaCl, 10 mM imidazole (pH 7.5); absorbance and interference scans; analysis with SEDFIT; His6 tags removed

- stoichiometry N [1]: 2
Substance: FadE1 (PA0506), fatty acyl-CoA dehydrogenase of Pseudomonas aeruginosa (enzyme)

Substance: FadE1 (Pseudomonas aeruginosa PAO1)
- Km [2]: 12.29 ± 1.43 µM
- Km [3]: 16.36 ± 2.09 µM

- stoichiometry N [4]: 2
Substance: FadE2 (PA0508), fatty acyl-CoA dehydrogenase of Pseudomonas aeruginosa (enzyme)
